Measured values: PMC12102759

B1: PEX5 peptide 108-123 (Peroxisomal targeting signal 1 receptor), 16-mer library wild type / PEX14 Pex14 (PEX14 PEX14, residues 16-84) (parent)
chain 1: GVADLALSENWAQEFL
chain 2: TPGSENVLPREPLIATAVKFLQNSRVRQSPLATRRAFLKKKGLTDEEIDMAFQQSGTAADEPSSLGPAT
B2: SH3BP2 peptide 408-423 (SH3 domain-binding protein 2), 16-mer library wild type / TNKS ANK (TNKS 12 ANK repeats, residues 174-649) (parent)
chain 1: PQLPHLQRSPPDGQSF
chain 2: TGVPAVSGALRELLEACRNGDVSRVKRLVDAANVNAKDMAGRKSSPLHFAAGFGRKDVVEHLLQMGANVHARDDGGLIPLHNACSFGHAEVVSLLLCQGADPNARDNWNYTPLHEAAIKGKIDVCIVLLQHGADPNIRNTDGKSALDLADPSAKAVLTGEYKKDELLEAARSGNEEKLMALLTPLNVNCHASDGRKSTPLHLAAGYNRVRIVQLLLQHGADVHAKDKGGLVPLHNACSYGHYEVTELLLKHGACVNAMDLWQFTPLHEAASKNRVEVCSLLLSHGADPTLVNCHGKSAVDMAPTPELRERLTYEFKGHSLLQAAREADLAKVKKTLALEIINFKQPQSHETALHCAVASLHPKRKQVTELLLRKGANVNEKNKDFMTPLHVAAERAHNDVMEVLHKHGAKMNALDTLGQTALHRAALAGHLQTCRLLLSYGSDPSIISLQGFTAAQMGNEAVQQILSESTPIRTSD

Variants of: B1
Experiment: proteomic peptide phage display deep mutational scan (ProP-PD DMS): M13 P8 16-mer library selected against immobilised GST-tagged bait for four days (rounds), NGS of the eluted pools per day and pseudo-replica
Details: with PEX14 Pex14 (PEX14 PEX14, residues 16-84); bait immobilised on MaxiSorp plates (10 µg), library pre-cleared on GST, 2 h binding at 4 °C, five washes; one round per day, days 1-4; value from days 2 and 3; scale: average fractional NGS count over selection days 2 and 3

| Variant | screen value |
| --- | --- |
| chain 1 GVADLYLSENWAQEFL | 0 |
| chain 1 GVADLFLSENWAQEFL | 0.000385 |
| chain 1 GVADLELSENWAQEFL | 0 |
| chain 1 GVADLALSENWAQEWL | 0.000382 |
| chain 1 GVADLALSENWAQELL | 0.000134 |
| chain 1 GVADLALSENWAQEHL | 0.00727 |
| chain 1 GVADLALSENWAQEKL | 0 |
| chain 1 GVADDALSENWAQEFL | 0.000324 |
| chain 1 GVADGALSENWAQEFL | 0 |
| chain 1 GVADFALSENWAQEFL | 0 |
| chain 1 GVADLALSENWAQAFL | 0.00268 |
| chain 1 GVADLALSENWAQDFL | 0.000196 |
| chain 1 GVADLALSENWAQSFL | 0.00161 |
| chain 1 GVADLALSENWAQTFL | 0.000432 |
| chain 1 GVADLALSENWAQYFL | 0.00013 |
| chain 1 GVADLALSENWAQKFL | 0.00049 |
| chain 1 GVADLALSENWIQEFL | 0.000211 |
| chain 1 GVADLALSENWRQEFL | 0 |

| Variant | screen value |
| --- | --- |
| chain 1 GVAPLALSENWAQEFL | 0 |
| chain 1 GVAQLALSENWAQEFL | 0.000734 |
| chain 1 GVASLALSENWAQEFL | 0.00106 |
| chain 1 GVANLALSENWAQEFL | 0 |
| chain 1 GVAVLALSENWAQEFL | 0 |
| chain 1 GVATLALSENWAQEFL | 0 |
| chain 1 GVAKLALSENWAQEFL | 0 |
| chain 1 GVAWLALSENWAQEFL | 0.000313 |
| chain 1 GVAILALSENWAQEFL | 9.56e-05 |
| chain 1 GVRDLALSENWAQEFL | 0 |
| chain 1 GVHDLALSENWAQEFL | 0.000109 |
| chain 1 GVKDLALSENWAQEFL | 0.000328 |
| chain 1 GVQDLALSENWAQEFL | 0.000248 |
| chain 1 GVADLALSSNWAQEFL | 0 |
| chain 1 GVADLALSGNWAQEFL | 0.000125 |
| chain 1 GVADLALSLNWAQEFL | 0.000321 |
| chain 1 GVADLALSVNWAQEFL | 0.000378 |
| chain 1 GVADLALSDNWAQEFL | 0.000711 |

Next, values leading:

| screen value | Variant |
| --- | --- |
| 0.000749 | chain 1 GEADLALSENWAQEFL |
| 0.000191 | chain 1 GVADSALSENWAQEFL |
| 0 | chain 1 GVADLALSEDWAQEFL |
| 0.00069 | chain 1 GVADLALSEYWAQEFL |
| 0.000111 | chain 1 GVADLALSEKWAQEFL |
| 0.000176 | chain 1 GVADLALSETWAQEFL |
| 0.000356 | chain 1 GVADLALSEFWAQEFL |
| 0.000414 | chain 1 GVADLALSEIWAQEFL |
| 0.000297 | chain 1 GVADLALSEVWAQEFL |
| 0.000626 | chain 1 GVADLALSENWAPEFL |
| 0.000163 | chain 1 GVADLALSENWAGEFL |
| 0.000462 | chain 1 GVADLALSENWATEFL |
| 0.000116 | chain 1 GVADLALSENWAWEFL |
| 0.00018 | chain 1 GVADLALSENYAQEFL |
| 0 | chain 1 GVADLALSENFAQEFL |
| 9.4e-05 | chain 1 GVADLALWENWAQEFL |
| 0.00069 | chain 1 GVADLALIENWAQEFL |
| 0.000241 | chain 1 GVADLALGENWAQEFL |
| 0.000717 | chain 1 GVADLALAENWAQEFL |
| 0 | chain 1 GVADLALKENWAQEFL |
| 0.0106 | chain 1 GVADLALHENWAQEFL |
| 0.000339 | chain 1 GVADLAVSENWAQEFL |
| 0.000675 | chain 1 GVADLAPSENWAQEFL |
| 0 | chain 1 GVADLAQSENWAQEFL |
| 0.000857 | chain 1 GVADLALSENWAQEFR |
| 0.000215 | chain 1 GVADLALSENWAQEFH |
| 0.00013 | chain 1 GVADLALSENWAQEFE |
| 0.000186 | chain 1 GVADLALSENWAQEFP |
| 0 | chain 1 GVADLALSENWAQEFF |
| 0.00389 | chain 1 GVADLALSENWAQEFV |

Variants of: B2
Experiment: as above
Details: with TNKS ANK (TNKS 12 ANK repeats, residues 174-649); bait immobilised on MaxiSorp plates (10 µg), library pre-cleared on GST, 2 h binding at 4 °C, five washes; one round per day, days 1-4; value from days 2 and 3; keep out of graded; scale: average fractional NGS count over selection days 2 and 3

| Variant | screen value |
| --- | --- |
| chain 1 PQLPHLQRSPPDAQSF | 0 |
| chain 1 PQLPHLQRSPPDWQSF | 0 |
| chain 1 PQLPHLQRSPPDQQSF | 0 |
| chain 1 PQLPWLQRSPPDGQSF | 7.66e-05 |
| chain 1 PQLPNLQRSPPDGQSF | 3.1e-05 |
| chain 1 PQLPDLQRSPPDGQSF | 5.12e-05 |
| chain 1 PQLPALQRSPPDGQSF | 0.000105 |
| chain 1 PQLPMLQRSPPDGQSF | 6.6e-05 |
| chain 1 PQLPELQRSPPDGQSF | 9.9e-05 |
| chain 1 PQLPLLQRSPPDGQSF | 0.000101 |

Other lines, results leading:

| screen value | Variant |
| --- | --- |
| 3.92e-05 | chain 1 PQLPHLQRSPPDGPSF |
| 6.15e-05 | chain 1 PQLPHLQRSPPDGDSF |
| 0.000114 | chain 1 PQLPHLQRSPPDGWSF |
| 5.9e-05 | chain 1 PQLPHLQRSRPDGQSF |
| 0.000103 | chain 1 PQLPHLQRSMPDGQSF |
| 3.04e-05 | chain 1 PWLPHLQRSPPDGQSF |
| 0 | chain 1 PQLPHLQHSPPDGQSF |
| 0 | chain 1 PQLPHLQASPPDGQSF |
| 0 | chain 1 PQLPHLQYSPPDGQSF |
| 0 | chain 1 PQLPHLQFSPPDGQSF |
| 8.91e-05 | chain 1 PQLPHLQSSPPDGQSF |
| 0 | chain 1 PQLPHLQWSPPDGQSF |
| 9.21e-05 | chain 1 PQLPHLQRSPPDGQGF |
| 6.25e-05 | chain 1 PQLPHIQRSPPDGQSF |
| 8.36e-05 | chain 1 PQLPHKQRSPPDGQSF |
| 9.97e-05 | chain 1 PQLPHLQRRPPDGQSF |
| 7.17e-05 | chain 1 PQLPHLQRGPPDGQSF |
| 0 | chain 1 PQLPHLQRSPLDGQSF |
| 0 | chain 1 PQLPHLQRSPIDGQSF |
| 0 | chain 1 PQLPHLQRSPMDGQSF |
| 0 | chain 1 PQLPHLQRSPEDGQSF |
